Measured values reported in patent US7592006 (UNIVERSIT CATHOLIQUE DE LOUVAIN, dated 2009).

T1: human CD2 (human, UniProt P06729 25-351)
T1 construct: whole, on cells; The plasmid is cited from Peterson and Seed, Nature 1987; also called CD2 antigen; wild-type CD2
T1 sequence (looked up): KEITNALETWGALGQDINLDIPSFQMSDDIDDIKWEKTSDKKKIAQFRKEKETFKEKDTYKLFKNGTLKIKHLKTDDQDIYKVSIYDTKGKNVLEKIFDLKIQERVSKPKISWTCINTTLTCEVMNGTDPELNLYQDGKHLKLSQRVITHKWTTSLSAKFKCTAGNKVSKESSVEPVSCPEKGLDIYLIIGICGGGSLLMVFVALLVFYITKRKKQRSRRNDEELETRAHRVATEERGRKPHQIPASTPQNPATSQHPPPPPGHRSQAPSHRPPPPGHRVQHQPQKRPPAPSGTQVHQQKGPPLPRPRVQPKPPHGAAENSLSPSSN


How the values were obtained:
[1] = biological target: T1, human CD2; experiment: two color flow cytometry on human PBMC, biotinylated LO-CD2a and Leu-5bPE; Y axis (FL2) taken as Leu-5b-PE, inferred
[2] = biological target: T1, human CD2; experiment: two color flow cytometry on human PBMC, biotinylated LO-CD2a and Leu-5bPE; upper left quadrant taken as Leu-5b-PE positive, LO-CD2a below the quadrant limit (axes inferred: X = FL1 LO-CD2a, Y = FL2 Leu-5b-PE)
[3] = biological target: T1, human CD2; experiment: flow cytometry on CD2-expressing Jurkat cells, 0 to 4 µg/ml antibody (FIG. 35)
Protocol: Transient expression in COS cells and detection of secreted antibody were carried out as described previously for the chimeric antibody. The humanized antibody was purified by affinity chromatography (Protein A). […] The Jurkat cell line, which expresses CD2, was stained with rat LO-CD2a, the humanized LO-CD2a (LO-CD2aHu), or rat IgG2b or human IgG controls. Antibody concentrations ranged from 0 to 4 ig/ml. […] Bound antibodies were detected with an isotype-specific FITC-conjugated antisera. The results shown in FIG. 35 are expressed as the percentage of cells positively stained by the antibodies over the range of concentrations mentioned hereinabove. Functional studies indicate that the humanized antibody is also capable of inhibiting a primary MLR. Nanogram quantities of LO-CD2a, LO-CD2aHu, rat IgG2b control, or human IgG1 control were added to culture wells containing equivalent numbers of human peripheral blood mononuclear cells (PBMC) from a designated responder and stimulator (irradiated cells). Control wells contained no antibody. The cultures were incubated for 5 days, then pulsed overnight with tritiated thymidine. (3HT). Proliferation is detected by the uptake of 3HT. The results, as given in Table 3 below, are expressed as the mean CPM as recorded by a Beta plate reader.

Y MEAN fluorescence (quadrant 1UL) [1]	Y MEAN fluorescence (quadrant 2UR) [1]	Y MEAN fluorescence (quadrant 4LR) [1]	% GATED (quadrant 1UL) [2] [%]	binding result [3]	Molecule
285	631	6.54	23.2	–	Leu-5b, mouse anti-human CD2 monoclonal antibody (Becton Dickinson)
–	–	–	–	binds	humanized LO-CD2a (antibody, V domains shown, Variable regions were cloned into the MRC light (human kappa) and heavy (human gamma 1) chain vectors; Expressed in COS cells and purified on Protein A; also called LO-CD2aHu; humanized antibody) VH: QVQLVQSGAEVKKPGASVKVSCKASGYTFTEYYMYWVRQAPGQGLELMGRIDPEDGSIDYVEKFKKKVTLTADTSSSTAYMELSSLTSDDTAVYYCARGKFNYRFAYWGQGTLVTVSS VL: DVVMTQSPPSLLVTLGQPASISCRSSQSLLHSSGNTYLNWLLQRPGQSPQPLIYLVSKLESGVPDRFSGSGSGTDFTLKISGVEAEDVGVYYCMQFTHYPYTFGQGTKLEIK
